Experimental findings from patent US20030032785 are described below.

The term Ki denotes a measure of affinity in units of concentration, obtained from inhibition or displacement. As a reminder, the Kd is the equilibrium constant for the complex coming apart. Low readings indicate tighter binding, high ones weaker binding.

Data set [1] relates to T1, VEGF165 (vascular endothelial growth factor, 165 aa form) (Homo sapiens), P15692-4.
T1 sequence: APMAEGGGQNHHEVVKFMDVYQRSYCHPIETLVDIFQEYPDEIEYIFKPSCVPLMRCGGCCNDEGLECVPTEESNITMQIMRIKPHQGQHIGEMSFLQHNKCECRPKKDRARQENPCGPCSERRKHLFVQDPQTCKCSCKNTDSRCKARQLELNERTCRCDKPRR
Nature of the data set: competition. The note with it: 2'-NH2 at all C and U; 2'-OMe A5,A16,G13,G17,G20,G24-26,G28; PS 2'-deoxy T caps 1-4 and 29-33; 125I-VEGF receptor binding.

The test system is the same in data set [2]. Kind of data set: filter. As to conditions: 2'-NH2 at all C and U; 2'-OMe A5,A16,G13,G17,G20,G24-26,G28; PS 2'-deoxy T caps 1-4 and 29-33.

Sequence “TTTACCCUGAUGGUAGACGCCGGGGUGTTTTT [NX-214]” registered a Ki in data set [1] of 1 nM. This sequence gave a Kd in data set [2] of 0.2 nM.
